According to PMC9864772:
pKd: −log10 of the molar value.

Tested on: PTB1 (polypyrimidine-tract-binding protein isoform 1)
Experiment: filter binding

EMCV 5'UTR RNA
pKd: 6.90

HCV 5'UTR RNA
pKd: 6.62
